# Reference: IntAct's records for PubMed 15992545
# B1: Auxin-responsive protein IAA12 (Arabidopsis thaliana (Mouse-ear cress)), Q38830 (parent)
# chain: MRGVSELEVGKSNLPAESELELGLGLSLGGGAWKERGRILTAKDFPSVGSKRSAESSSHQGASPPRSSQVVGWPPIGLHRMNSLVNNQAMKAARAEEGDGEKKVVKNDELKDVSMKVNPKVQGLGFVKVNMDGVGIGRKVDMRAHSSYENLAQTLEEMFFGMTGTTCREKVKPLRLLDGSSDFVLTYEDKEGDWMLVGDVPWRMFINSVKRLRIMGTSEASGLAPRRQEQKDRQRNNPV
# partner: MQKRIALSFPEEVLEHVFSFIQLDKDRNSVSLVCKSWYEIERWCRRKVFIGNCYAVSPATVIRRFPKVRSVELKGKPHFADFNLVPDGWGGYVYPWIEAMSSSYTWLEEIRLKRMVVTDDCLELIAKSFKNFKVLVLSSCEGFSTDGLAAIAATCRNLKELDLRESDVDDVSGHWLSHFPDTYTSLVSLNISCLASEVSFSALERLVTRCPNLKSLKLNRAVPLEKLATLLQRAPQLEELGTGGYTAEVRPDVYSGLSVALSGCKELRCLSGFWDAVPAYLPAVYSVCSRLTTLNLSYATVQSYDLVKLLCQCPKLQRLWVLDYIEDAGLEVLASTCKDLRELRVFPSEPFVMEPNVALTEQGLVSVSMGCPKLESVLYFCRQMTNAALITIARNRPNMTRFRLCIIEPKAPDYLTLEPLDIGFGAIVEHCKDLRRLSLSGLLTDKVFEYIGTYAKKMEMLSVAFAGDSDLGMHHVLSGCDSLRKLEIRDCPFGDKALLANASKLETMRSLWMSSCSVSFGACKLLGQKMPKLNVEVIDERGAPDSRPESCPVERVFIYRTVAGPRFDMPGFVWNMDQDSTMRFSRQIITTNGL
# B2: Auxin-responsive protein IAA12 (Arabidopsis thaliana (Mouse-ear cress)), Q38830 (parent)
# chain: B1 chain
# partner: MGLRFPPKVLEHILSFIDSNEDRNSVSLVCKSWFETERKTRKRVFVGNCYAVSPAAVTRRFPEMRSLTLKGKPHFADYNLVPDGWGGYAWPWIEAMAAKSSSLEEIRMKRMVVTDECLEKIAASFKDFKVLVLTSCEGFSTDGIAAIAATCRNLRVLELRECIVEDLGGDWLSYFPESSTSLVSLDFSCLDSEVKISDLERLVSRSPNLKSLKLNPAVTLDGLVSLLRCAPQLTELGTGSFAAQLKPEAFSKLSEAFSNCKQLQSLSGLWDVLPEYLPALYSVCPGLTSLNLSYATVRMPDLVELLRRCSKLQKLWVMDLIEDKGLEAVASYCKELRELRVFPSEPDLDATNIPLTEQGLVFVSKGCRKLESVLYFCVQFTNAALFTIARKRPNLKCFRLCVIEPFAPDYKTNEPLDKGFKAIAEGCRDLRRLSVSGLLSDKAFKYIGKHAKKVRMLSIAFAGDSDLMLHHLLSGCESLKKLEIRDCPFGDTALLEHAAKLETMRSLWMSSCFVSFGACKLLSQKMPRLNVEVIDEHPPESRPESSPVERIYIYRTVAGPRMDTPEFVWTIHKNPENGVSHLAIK
# B3: Auxin-responsive protein IAA12 (Arabidopsis thaliana (Mouse-ear cress)), Q38830 (parent)
# chain: B1 chain
# partner: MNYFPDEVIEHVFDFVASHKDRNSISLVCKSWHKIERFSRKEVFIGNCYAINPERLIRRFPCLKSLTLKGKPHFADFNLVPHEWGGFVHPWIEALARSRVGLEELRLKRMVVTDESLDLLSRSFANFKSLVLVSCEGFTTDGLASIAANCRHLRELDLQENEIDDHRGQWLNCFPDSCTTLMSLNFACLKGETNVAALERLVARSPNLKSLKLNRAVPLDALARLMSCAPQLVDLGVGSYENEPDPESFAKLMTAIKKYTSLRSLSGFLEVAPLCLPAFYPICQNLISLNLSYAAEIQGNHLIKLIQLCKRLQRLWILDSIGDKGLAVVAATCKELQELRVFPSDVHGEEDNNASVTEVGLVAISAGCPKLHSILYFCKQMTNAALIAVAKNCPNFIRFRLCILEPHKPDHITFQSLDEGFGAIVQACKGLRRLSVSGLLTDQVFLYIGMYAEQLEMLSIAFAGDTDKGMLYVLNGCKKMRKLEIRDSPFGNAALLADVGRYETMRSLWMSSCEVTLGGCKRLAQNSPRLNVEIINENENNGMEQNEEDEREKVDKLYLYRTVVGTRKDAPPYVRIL
# Variants of: B1
# Details: with tir1_arath TIR1, Q570C0
row,effect of a mutation on the interaction,Variant
1,decreasing interaction,P74S

# Variants of: B2
# Details: with grh1_arath GRH1, Q9ZR12
row,effect of a mutation on the interaction,Variant
1,decreasing interaction,P74S

# Variants of: B3
# Details: with afb3_arath AFB3, Q9LPW7
row,effect of a mutation on the interaction,Variant
1,decreasing interaction,P74S
